Experimental data: PMC10770428 (Current Research in Structural Biology, 2023)

T1: C-terminal FH1-FH2 FMN1 (amino acids 870–1466) (mouse, UniProt Q05860 870-1466)
T1 sequence (looked up): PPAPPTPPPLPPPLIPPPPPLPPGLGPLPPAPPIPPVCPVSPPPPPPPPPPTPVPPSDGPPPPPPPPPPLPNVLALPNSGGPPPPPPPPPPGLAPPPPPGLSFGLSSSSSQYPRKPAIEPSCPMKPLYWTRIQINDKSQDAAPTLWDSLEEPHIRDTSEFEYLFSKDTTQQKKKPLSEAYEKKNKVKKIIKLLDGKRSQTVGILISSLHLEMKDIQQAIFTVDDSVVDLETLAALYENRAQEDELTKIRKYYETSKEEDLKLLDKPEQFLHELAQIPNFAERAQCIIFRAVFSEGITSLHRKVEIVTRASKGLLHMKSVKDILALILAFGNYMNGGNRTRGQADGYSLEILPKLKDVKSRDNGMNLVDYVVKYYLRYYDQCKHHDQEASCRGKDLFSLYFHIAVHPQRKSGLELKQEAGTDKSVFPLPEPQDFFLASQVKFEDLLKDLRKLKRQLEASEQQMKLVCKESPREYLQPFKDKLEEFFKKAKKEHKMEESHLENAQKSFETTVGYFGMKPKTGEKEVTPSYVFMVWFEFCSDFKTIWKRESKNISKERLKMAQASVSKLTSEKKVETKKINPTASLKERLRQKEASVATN

B1: N-terminal WW1-WW2 FNBP4 (amino acids 214–629) (domain or fragment, UniProt Q8N3X1 214-629, looked up)
chain: GIEMGDWQEVWDENTGCYYYWNTQTNEVTWELPQYLATQVQGLQHYQPSSVPGAETSFVVNTDIYSKEKTISVSSSKSGPVIAKREVKKEVNEGIQALSNSEEEKKGVAASLLAPLLPEGIKEEEERWRRKVICKEEPVSEVKETSTTVEEATTIVKPQEIMLDNIEDPSQEDLCSVVQSGESEEEEEQDTLELELVLERKKAELRALEEGDGSVSGSSPRSDISQPASQDGMRRLMSKRGKWKMFVRATSPESTSRSSSKTGRDTPENGETAIGAENSEKIDENSDKEMEVEESPEKIKVQTTPKVEEEQDLKFQIGELANTLTSKFEFLGINRQSISNFHVLLLQTETRIADWREGALNGNYLKRKLQDAAEQLKQYEINATPKGWSCHWDRDHRRYFYVNEQSGESQWEFPDG

How the values were obtained:
[1] = biological target: T1, C-terminal FH1-FH2 FMN1 (amino acids …); assay: SPR
[2] = biological target: B1; assay: SPR

| Kd [1] | koff [1] | kon [1] | Kd [2] | koff [2] | kon [2] | Binder |
| --- | --- | --- | --- | --- | --- | --- |
| 1.84 nM | 0.000571 s⁻¹ | 310000 M⁻¹ s⁻¹ | – | – | – | B1 |
| 2 nM | 0.00127 s⁻¹ | 637000 M⁻¹ s⁻¹ | – | – | – | WW1 FNBP4 (amino acids 214–430) (domain or fragment, UniProt Q8N3X1 214-430, looked up) GIEMGDWQEVWDENTGCYYYWNTQTNEVTWELPQYLATQVQGLQHYQPSSVPGAETSFVVNTDIYSKEKTISVSSSKSGPVIAKREVKKEVNEGIQALSNSEEEKKGVAASLLAPLLPEGIKEEEERWRRKVICKEEPVSEVKETSTTVEEATTIVKPQEIMLDNIEDPSQEDLCSVVQSGESEEEEEQDTLELELVLERKKAELRALEEGDGSVSG |
| – | – | – | 0.56 nM | 0.0107 s⁻¹ | 1.94e+07 M⁻¹ s⁻¹ | FH1 FMN1 (amino acids 870–970) (domain or fragment, mouse, UniProt Q05860 870-970, looked up) PPAPPTPPPLPPPLIPPPPPLPPGLGPLPPAPPIPPVCPVSPPPPPPPPPPTPVPPSDGPPPPPPPPPPLPNVLALPNSGGPPPPPPPPPPGLAPPPPPGL |
